Strand notation (5' to 3'): a small letter for the sugar, then the base; units joined by * are phosphorothioate-linked, units joined directly phosphodiester-linked; [ ] holds rarer units or linkages, { } end groups; capitals alone tell only the bases. m = 2'-O-methyl; r = 2'-OH (RNA)
B1: G000494: TTR sgRNA modified sequence, Human, SEQ ID No. 101; guide sequence of CR003360 (nucleic acid)
guide: mG*mU*mG*rArGrUrCrUrGrGrArGrArGrCrUrGrCrArUrGrUrUrUrUrArGrAmGmCmUmAmGmAmAmAmUmAmGmCrArArGrUrUrArArArArUrArArGrGrCrUrArGrUrCrCrGrUrUrArUrCrAmAmCmUmUmGmAmAmAmAmAmGmUmGmGmCmAmCmCmGmAmGmUmCmGmGmUmGmCmU*mU*mU*mU
B2: G000499: TTR sgRNA modified sequence, Human, SEQ ID No. 106; guide sequence of CR005303 (nucleic acid)
guide: mU*mG*mA*rArUrCrCrArArGrUrGrUrCrCrUrCrUrGrArGrUrUrUrUrArGrAmGmCmUmAmGmAmAmAmUmAmGmCrArArGrUrUrArArArArUrArArGrGrCrUrArGrUrCrCrGrUrUrArUrCrAmAmCmUmUmGmAmAmAmAmAmGmUmGmGmCmAmCmCmGmAmGmUmCmGmGmUmGmCmU*mU*mU*mU
B3: G000486: TTR sgRNA modified sequence, Human, SEQ ID No. 93; guide sequence of CR003339 (nucleic acid)
guide: mA*mC*mA*rCrArArArUrArCrCrArGrUrCrCrArGrCrArGrUrUrUrUrArGrAmGmCmUmAmGmAmAmAmUmAmGmCrArArGrUrUrArArArArUrArArGrGrCrUrArGrUrCrCrGrUrUrArUrCrAmAmCmUmUmGmAmAmAmAmAmGmUmGmGmCmAmCmCmGmAmGmUmCmGmGmUmGmCmU*mU*mU*mU
B4: G000480: TTR sgRNA modified sequence, Human, SEQ ID No. 87; guide sequence of CR003353 (nucleic acid)
guide: mA*mA*mA*rGrGrCrUrGrCrUrGrArUrGrArCrArCrCrUrGrUrUrUrUrArGrAmGmCmUmAmGmAmAmAmUmAmGmCrArArGrUrUrArArArArUrArArGrGrCrUrArGrUrCrCrGrUrUrArUrCrAmAmCmUmUmGmAmAmAmAmAmGmUmGmGmCmAmCmCmGmAmGmUmCmGmGmUmGmCmU*mU*mU*mU
B5: G000481: TTR sgRNA modified sequence, Human, SEQ ID No. 88; guide sequence of CR003345 (nucleic acid)
guide: mU*mC*mU*rArGrArArCrUrUrUrGrArCrCrArUrCrArGrGrUrUrUrUrArGrAmGmCmUmAmGmAmAmAmUmAmGmCrArArGrUrUrArArArArUrArArGrGrCrUrArGrUrCrCrGrUrUrArUrCrAmAmCmUmUmGmAmAmAmAmAmGmUmGmGmCmAmCmCmGmAmGmUmCmGmGmUmGmCmU*mU*mU*mU

What was measured:
human TTR sequence = assay: Liver editing in humanized TTR mice dosed with LNP formulations (Table 26); format: in vivo, mouse; conditions: for Liver editing: LNP Formulation Numbers 1-5, Cas9 mRNA SEQ ID NO:2, 2 mg/kg total RNA, mean values, FIG. 9; for % Editing: Table 26, liver editing, LNP Formulation Numbers 6-16, 1 mg/kg (total RNA content)
Experimental: Unless otherwise noted, CD-1 female mice, ranging from 6-10 weeks of age were used in each study. Animals were weighed and grouped according to body weight for preparing dosing solutions based on group average weight. LNPs were dosed via the lateral tail vein in a volume of 0.2 mL per animal (approximately 10 mL per kilogram body weight). […] Body weight was measured at twenty-four hours post-administration, and animals were euthanized at various time points by exsanguination via cardiac puncture under isoflourane anesthesia. Blood was collected into serum separator tubes or into tubes containing buffered sodium citrate for plasma as described herein. For studies involving in vivo editing, liver tissue was collected from the median lobe or from three independent lobes (e.g., the right median, left median, and left lateral lobes) from each animal for DNA extraction and analysis.
To quantitatively determine the efficiency of editing at the target location in the genome, sequencing was utilized to identify the presence of insertions and deletions introduced by gene editing.
Primers were designed around the target site within the gene of interest (e.g. TTR), and the genomic area of interest was amplified.
Additional PCR was performed per the manufacturer's protocols (Illumina) to add chemistry for sequencing. The amplicons were sequenced on an Illumina MiSeq instrument. The reads were aligned to a reference genome (e.g., the human reference genome (hg38), the cynomologus reference genome (mf5), the rat reference genome (rn6), or the mouse reference genome (mm10)) after eliminating those having low quality scores. The resulting files containing the reads were mapped to the reference genome (BAM files), where reads that overlapped the target region of interest were selected and the number of wild type reads versus the number of reads which contain an insertion, substitution, or deletion was calculated.
The editing percentage (e.g., the “editing efficiency” or “percent editing” or “indel frequency”) is defined as the total number of sequence reads with insertions/deletions (“indels”) or substitutions over the total number of sequence reads, including wild type.
Mice humanized with respect to the TTR gene were dosed with LNP formulations 701-704 containing the guides indicated in Table 25 (5 mice per formulation). These humanized TTR mice were engineered such that a region of the endogenous murine TTR locus was deleted and replaced with an orthologous human TTR sequence so that the locus encodes a human TTR protein. For comparison, 6 mice with murine TTR were dosed with LNP700, containing a guide (G000282) targeting murine TTR. […]

[1] = system: potential off-target sites; assay: Targeted amplicon sequencing of potential off-target sites in PHH treated with LNPs (Tables 31-33); format: cell-based, human; conditions: for Indel Frequency (using LNP with 100 ng Cas9 mRNA and 14.68 nM gRNA) / Indel rate at the on-target site / Indels at in silico predicted off-target sites / Number of potential off-target sites identified by the oligo insertion assay at which indels were detected: PHH treated with LNP; for Indel Frequency (using LNP with 100 ng Cas9 mRNA and 14.68 nM gRNA): NGS targeted amplicon sequencing; for Indel rate at the on-target site / Indels at in silico predicted off-target sites / Number of potential off-target sites identified by the oligo insertion assay at which indels were detected: 100 ng Cas9 mRNA (SEQ ID NO:1), near-saturating dose; for Indel rate at the on-target site: gRNA 14.68 nM; for Number of potential off-target sites identified by the oligo insertion assay at which indels were detected: indels at low levels; for On-target indel rate at highest concentration without detected off-target sites / Highest gRNA concentration at which the potential off-target sites were no longer detected: PHH; for On-target indel rate at highest concentration without detected off-target sites: G000480 at 0.57 nM, G000486 at 15.51 nM gRNA; for Highest gRNA concentration at which the potential off-target sites were no longer detected: LNP dose response, 11 points 0.001-46.55 nM gRNA
Experimental: The HEK293_Cas9 cells used in Example 5 for detecting potential off-targets constitutively overexpress Cas9, leading to a higher number of potential off-target “hits” as compared to a transient delivery paradigm in various cell types. […] Accordingly, potential off-target sites identified by an oligo insertion method as used in Example 5 may be validated using targeted sequencing of the identified potential off-target sites.
In one approach, primary hepatocytes are treated with LNPs comprising Cas9 mRNA and a sgRNA of interest (e.g., a sgRNA having potential off-target sites for evaluation). The primary hepatocytes are then lysed and primers flanking the potential off-target site(s) are used to generate an amplicon for NGS analysis. Identification of indels at a certain level may validate potential off-target site, whereas the lack of indels found at the potential off-target site may indicate a false positive in the HEK293_Cas9 cell assay.
Following the identification of potential off-target sites in […] via the oligo insertion assay, certain potential sites were further evaluated by targeted amplicon sequencing, e.g., as described in Example 6. In addition to the potential off-target sites identified by the oligo insertion strategy, additional potential off-target sites identified by in silico prediction were included in the analysis.
To this end, PHH were treated with LNPs comprising 100 ng of Cas9 mRNA (SEQ ID NO:1) and the gRNA of interest at 14.68 nM (in a 1:1 ratio by weight), as described in Example 4. The LNPs were prepared using the cross-flow procedure described above and purified and concentrated using PD-10 columns and Amicon centrifugal filter units, respectively. The LNPs were formulated with an N:P ratio of 6.0 and contained Lipid A, Cholesterol, DSPC, and PEG2k-DMG in a 50:38:9:2 molar ratio, respectively. Following LNP treatment, isolated genomic DNA was analyzed by NGS (e.g., as described in Examples 1 and 6) to determine whether indels could be detected at the potential off-target site, which would be indicative of a Cas9-mediated cleavage event. Tables 31 and 32 show the potential off-target sites that were evaluated for the gRNAs G000480 and G000486, respectively.
As shown in FIGS. 21A-B and 22A-B and Table 33 below, indels were detected at low levels for only two of the potential off-target sites identified by the oligo insertion assay for G000480, and only one for G000486. […] Further, indels were only detected at these sites using a near-saturating dose of LNP, as the indel rates observed at the on-target sites for G000480 and G000486 were ˜97% and ˜91%, respectively (See Table 33).
A dose response assay was then performed in order to determine the highest dose of LNP in which no off-targets were detected. PHH were treated with LNPs comprising either G000480 or G000486 as described in Example 4. The doses ranged across 11 points with respect to gRNA concentration (0.001 nM, 0.002 nM, 0.007 nM, 0.02 nM, 0.06 nM, 0.19 nM, 0.57 nM, 1.72 nM, 5.17 nM, 15.51 nM, and 46.55 nM).

[2] = Off-Target site INS-OT.4 (of the respective guide)

Row | Molecule | Liver editing (human TTR sequence) [%] | % Editing (human TTR sequence) [%] | Indel Frequency (using LNP with 100 ng Cas9 mRNA and 14.68 nM gRNA) [1, 2] [%] | Indel Frequency (using LNP with 100 ng Cas9 mRNA and 14.68 nM gRNA) ([1]; On-Target site) [%] | Indel rate at the on-target site [1] [%] | Indels at in silico predicted off-target sites [1] | Number of potential off-target sites identified by the oligo insertion assay at which indels were detected [1] | On-target indel rate at highest concentration without detected off-target sites [1] [%] | Highest gRNA concentration at which the potential off-target sites were no longer detected [1] [nM] | Indel Frequency (using LNP with 100 ng Cas9 mRNA and 14.68 nM gRNA) ([1]; Off-Target site INS-OT.2) [%]
1 | B1 | ~60 |  |  |  |  |  |  |  |  | 
2 | B2 | ~60 | 65.66 |  |  |  |  |  |  |  | 
3 | B3 |  |  | 0.47 | 91.33 | ~91 | No indels were detected | one | 89.50 | 15.51 | 
4 | B4 |  |  | 0.97 | 97.33 | ~97 | No indels were detected | two | 84.60 | 0.57 | 1.43
5 | B5 |  | 61.28 |  |  |  |  |  |  |  | 
